One molecule from patent US12527862B2, “Bactericidal/permeability increasing protein for use in a method of immunization, preferably as an adjuvant in a method of vaccination” (UNIVERSITÄT REGENSBURG, priority 2018, dated 2026) can be followed below.

In test [1] the test system is BMDCs. The test can be described thus: Quantitative real-time PCR gene expression in BMDCs. It counts as cell-based, C57BL/6J mice. The conditions noted are these: BMDCs stimulated with BPI; rtPCR normalized to HPRT, also microarray (FIGS. 2B and C). The protocol: Gene expression analyses using rtPCR were performed 30 min, 1 h, 2 h, 4 h, 8 h, 12 h, 24 h and 48 h after the stimulation.
After stimulation, cells were lysed and RNA was isolated using RNeasyR Mini Kit (#74106, Qiagen). Remaining DNA in the sample was digested using TURBO DNA-free™ Kit (#AM1907, ThermoFisher Scientific). Finally, the RNA concentration was measured with a NanoDrop 1000 (Thermo Scientific). The isolated RNA was transcribed into complementary DNA (cDNA) using the iScript™ª Advanced cDNA Synthesis Kit (#1725038, Bio-Rad).
To analyze altered gene transcription, in particular of genes CXCL10, HPRT, IL-2, IL-6, and IL-12p40, in response to different stimulatory reagents, quantitative real-time PCR (qRT-PCR) was performed using SYBR-Green Master Mix (LightCycler® 480 SYBR Green I Master, #4707516001, Roche). Gene-specific primers synthesized by Thermo Fisher Scientific, Microsynth, Biomers, and Metabion were used. PCR reaction was performed using the HT 7900 Real-Time PCR system (Applied Biosystems). SDS software version 2.4 (Applied Biosystems) was used to analyze the gene expression, which was normalized to the housekeeping gene HPRT. 2^-ΔΔCT method was used to analyze the data.
(In general: Real-time PCR tracks product formation cycle by cycle.)

Test [2] has as its system naïve CD4+ T cells. The test can be described thus: T cell activation assay with naïve CD4+ T cells and dendritic cell-derived supernatant. Type of test: cell-based, C57BL/6J mice. As to conditions: DC supernatant after BPI 200 nM ± ODN 1826 20 nM, aCD3 and aCD28, day five, Luminex, n=3 (FIG. 13A-C). The protocol:
Naive CD4+CD25-CD44-CD62L+ T cells were isolated from peripheral lymph nodes and spleen of C57BL/6J mice and purified by MACS and FACS. Naïve CD4+ T cells were cultured in the presence of aCD3 and aCD28 antibodies and dendritic cell-derived supernatant after stimulation with BPI (SN BPI, BPI 200 nM) or after stimulation with ODN 1826 (SN CpG, ODN 1826 20 nM) or after stimulation with BPI and ODN 1826 (SN BPI+CpG, BPI 200 nM, ODN 1826 20 nM) or supernatant without addition of BPI or ODN 1826 (SN NT). On day five, cytokine levels were measured by Luminex. • A. Th1 differentiation as shown by detection of IFNγ (n=3). • B. Th17 differentiation as shown by detection of IL-17 (n=3). • C. […] Lymph node cells were stimulated with aCD3 and aCD28 antibodies and SN BPI or SN NT and incubated for 6h before adding a protein transport inhibitor cocktail and incubating for additional 16h. […]
To isolate CD4+SC and pLNC, cells isolated from spleen and peripheral lymph nodes (see 2.1.3) were sorted by magnetic cell sorting (MACS), using a CD4+ T cell isolation kit (#130-104-454, Miltenyi Biotec). […] The flow-through, containing unlabeled CD4+ cells, was collected and cell number was determined using a hemocytometer. CD4+SC and pLNC were used in experiments or labeled with fluorescent antibodies against non-naïve T cell markers for fluorescence activated cell sorting (FACS) of naïve CD4+ T cells. […]

B1: bactericidal/permeability-increasing protein (protein)
chain: RIKIPDYSDSFKIKHLGKGHYSFYSMDIREFQLPSSQISMVPNVGLKFSISNANIKISGKWKAQKRFLKMSGNFDLSIEGMSISADLKLGSNPTSGKPTITCSSCSSHINSVHVHISKSKVGWLIQLFHKKIESALRNKMNSQVCEKVTNSVSSELQPYFQTLPVMTKIDSVAGINYGLVAPPATTAETLDVQMKGEFYSENHHNPPPFAPPVMEFPAAHDRMVYLGLSDYFFNTAGLVYQEAGVLKMTLRDDMIPKESKFRLTTKFFGTFLPEVAKKFPNMKIQIHVSASTPPHLSVQPTGLTFYPAVDVQAFAVLPNSSLASLFLIGMHTTGSMEVSAESNRLVGELKLDRLLLELKHSNIGPFPVELLQDIMNYIVPILVLPRVNEKLQKGFPLPTPARVQLYNVVLQPHQNFLLFGADVVYK
modifications: labeled with NT647 (Monolith NT Protein Labeling Kit RED-NHS) in the MST experiments
notes: recombinant human BPI, aa32-487 of huBPI with N-terminal HA signal peptide, expressed in HEK293T cells
As for B1, the “CXCL10, IL-2, IL-6, and IL-12p40 mRNA expression” value in test [1] is “increase of CXCL10, IL-2, IL-6, and IL-12p40 mRNA expression”. Also, the “activation and differentiation of naïve T cells into Th1, Th17 and Th22 cells (IFNγ, IL-17, IL-22)” value in test [2] was “promotes not only activation but also differentiation of naïve T cells into Th1, Th17 and Th22 cells”.
